What was measured:
Assay type in all cases: biochemical
[1] = system: Trastuzumab having high-mannose glycans; test: Trimming of high-mannose trastuzumab by fusion protein EndoSH; details: 1 w/w % EndoSH, 37° C., after 3 hours, 25 mM Tris buffer pH 8, MS analysis
Experimental: Trastuzumab having high-mannose glycans (obtained via transient expression in CHO K1 cells in the presence of kifunensine performed by Evitria (Zurich, Switzerland)) (14 mg/mL) in 25 mM Tris buffer pH 8, was trimmed using a concentration of either 0.1 or 1 w/w % EndoSH. The reactions, 350 μg high-mannose trastuzumab (25 μL) and the appropriate amount of EndoSH, were stirred at 37° C. and analyzed by MS analysis over time, 1-3 hours. Samples were subjected to Fabricator treatment prior to analysis.
Prior to mass spectral analysis, IgGs were either treated with DTT, which allows analysis of both light and heavy chain, or treated with Fabricator™ (commercially available from Genovis, Lund, Sweden), which allows analysis of the Fc/2 fragment. For analysis of both light and heavy chain, a solution of 20 μg (modified) IgG was incubated for 5 minutes at 37° C. with 100 mM DTT in a total volume of 4 μL. If present, azide-functionalities are reduced to amines under these conditions. For analysis of the Fc/2 fragment, a solution of 20 μg (modified) IgG was incubated for 1 hour at 37° C. with Fabricator™ (1.25 U/μL) in phosphate-buffered saline (PBS) pH 6.6 in a total volume of 10 μL. […] Next, the samples were analyzed by electrospray ionization time-of-flight (ESI-TOF) on a JEOL AccuTOF. […]

glycans on glycoproteins = test: pH at which the endoglycosidase activity operates
Source text: Trimming of glycoproteins is known in the art, from e.g. WO 2007/133855 or WO 2014/065661.

Trastuzumab = test: Trimming of trastuzumab by EndoSH; details: 0.1 w/w % EndoSH, 37° C., after 1 hour, 25 mM Tris buffer pH 8, MS analysis
Experimental: Trastuzumab (obtained from Epirus biopharma (Utrecht, The Netherlands)) in 25 mM Tris buffer pH 8), (14 mg/mL) was trimmed using a concentration of either 0.1 or 1 w/w % EndoSH. The reactions, 350 μg trastuzumab (25 μL) and the appropriate amount of EndoSH, were stirred at 37° C. and analyzed by MS analysis overtime, 1 to 3 hours. Samples were subjected to Fabricator treatment prior to analysis.
Prior to mass spectral analysis, IgGs were either treated with DTT, which allows analysis of both light and heavy chain, or treated with Fabricator™ (commercially available from Genovis, Lund, Sweden), which allows analysis of the Fc/2 fragment. For analysis of both light and heavy chain, a solution of 20 μg (modified) IgG was incubated for 5 minutes at 37° C. with 100 mM DTT in a total volume of 4 μL. If present, azide-functionalities are reduced to amines under these conditions. For analysis of the Fc/2 fragment, a solution of 20 μg (modified) IgG was incubated for 1 hour at 37° C. with Fabricator™ (1.25 U/μL) in phosphate-buffered saline (PBS) pH 6.6 in a total volume of 10 μL. After reduction or Fabricator-digestion the samples were washed trice with milliQ using an Amicon Ultra-0.5, Ultracel-10 Membrane (Millipore) resulting in a final sample volume of approximately 40 μL. Next, the samples were analyzed by electrospray ionization time-of-flight (ESI-TOF) on a JEOL AccuTOF. […]

B1: EndoSH: fusion enzyme of endoglycosidases EndoS and EndoH connected via a -(G4S)3-(His)6-(G4S)3- linker, SEQ ID NO: 1 (protein)
chain: MPSIDSLHYLSENSKKEFKEELSKAGQESQKVKEILAKAQQADKQAQELAKMKIPEKIPMKPLHGPLYGGYFRTWHDKTSDPTEKDKVNSMGELPKEVDLAFIFHDWTKDYSLFWKELATKHVPKLNKQGTRVIRTIPWRFLAGGDNSGIAEDTSKYPNTPEGNKALAKAIVDEYVYKYNLDGLDVDVEHDSIPKVDKKEDTAGVERSIQVFEEIGKLIGPKGVDKSRLFIMDSTYMADKNPLIERGAPYINLLLVQVYGSQGEKGGWEPVSNRPEKTMEERWQGYSKYIRPEQYMIGFSFYEENAQEGNLWYDINSRKDEDKANGINTDITGTRAERYARWQPKTGGVKGGIFSYAIDRDGVAHQPKKYAKQKEFKDATDNIFHSDYSVSKALKTVMLKDKSYDLIDEKDFPDKALREAVMAQVGTRKGDLERFNGTLRLDNPAIQSLEGLNKFKKLAQLDLIGLSRITKLDRSVLPANMKPGKDTLETVLETYKKDNKEEPATIPPVSLKVSGLTGLKELDLSGFDRETLAGLDAATLTSLEKVDISGNKLDLAPGTENRQIFDTMLSTISNHVGSNEQTVKFDKQKPTGHYPDTYGKTSLRLPVANEKVDLQSQLLFGTVTNQGTLINSEADYKAYQNHKIAGRSFVDSNYHYNNFKVSYENYTVKVTDSTLGTTTDKTLATDKEETYKVDFFSPADKTKAVHTAKVIVGDEKTMMVNLAEGATVIGGSADPVNARKVFDGQLGSETDNISLGWDSKQSIIFKLKEDGLIKHWRFFNDSARNPETTNKPIQEASLQIFNIKDYNLDNLLENPNKFDDEKYWITVDTYSAQGERATAFSNTLNNITSKYWRVVFDTKGDRYSSPVVPELQILGYPLPNADTIMKTVTTAKELSQQKDKFSQKMLDELKIKEMALETSLNSKIFDVTAINANAGVLKDCIEKRQLLKKGGGGSGGGGSGGGGSHHHHHHEFGGGGSGGGGSGGGGSAPAPVKQGPTSVAYVEVNNNSMLNVGKYTLADGGGNAFDVAVIFAANINYDTGTKTAYLHFNENVQRVLDNAVTQIRPLQQQGIKVLLSVLGNHQGAGFANFPSQQAASAFAKQLSDAVAKYGLDGVDFDDEYAEYGNNGTAQPNDSSFVHLVTALRANMPDKIISLYNIGPAASRLSYGGVDVSDKFDYAWNPYYGTWQVPGIALPKAQLSPAAVEIGRTSRSTVADLARRTVDEGYGVYLTYNLDGGDRTADVSAFTRELYGSEAVRTP
modifications: Fusion protein EndoSH
conversion to the trimmed product, trimmed to the core GlcNAc sugar residue [1]: Full conversions | pH at which both activities (EndoS and EndoH) of the fusion enzyme function smoothly (glycans on glycoproteins): 7-8 | conversion to the trimmed product, trimmed to the core GlcNAc sugar residue (Trastuzumab): Full conversions
